Data on eleven molecules can be found in patent US8236762B2, “Peptide-cytotoxic conjugates” (IPSEN Pharma S.A.S., priority 2006, dated 2012).

Like-named read-outs stand apart in the source and are kept apart here. Numbered stars: 1 amine (or outer) side, 2 acyl side, 3 side chain; on linkers, the order of the positions; unused ones are H or OH. Square brackets hold non-standard residues; d marks the D form. Peptide text beside a SMILES is read from it. * marks the point of attachment. Pipz(1-CH2CO,4-CH2CH2NH) = O=C(CN1CCN(CCN[*:1])CC1)[*:2]; X1 = CC[C@@]1(O*)C(=O)OCc2c1cc1n(c2=O)Cc2cc3ccccc3nc2-1; Suc = O=C(CCC(=O)[*:2])[*:1]; Nle = CCCC[C@H](N)C(=O)O; AEEA = NCCOCCOCC(=O)O; GABA = NCCCC(=O)O; βAla = NCCC(=O)O

A short description of series [1]: Half-life determination in mouse plasma (LC-MS). Type of series: in vitro ADME. Particulars: 37° C. The protocol: (§1) Samples containing approximately 50 μg/ml up to and including approximately 500 μg/ml of test compound according to Formula IA or IB or II was added to 450 μl human or mouse plasma, vortexed briefly and incubated at 37° C. At various time intervals, e.g., 0, 0.5, 1, 2, 4, 6, 8, 24, 36 and 48 hours, 50 μl of the compound-plasma mixture was added to 150 μl acetonitrile in a microcentrifuge tube. The mixture was vortexed, centrifuged for 5 minutes at 10K RPM, and 135 μl of supernatant was transferred to an injection vial. The recovered supernatant was analyzed by using a liquid chromatography-mass spectrophotometer system (LC-MS) consisting of a Finnigan Deca XP® mass spectrometer with an ESI probe at the positive ion mode. HPLC separation was carried out on a Luna 3μ C8 (2)® 3×50 mm column with a gradient decreasing from 100% A to 80% B for 10 minutes at a flow rate of 0.25 ml/min. Buffer A was 0.1% acetic acid in water and buffer B was 0.1% acetic acid acetonitrile.

Series [2] in a line: Half-life determination in human plasma (LC-MS). Particulars: 37° C. It counts as in vitro ADME. As to the method: as §1
The target in another series is T1, hSSTR-1 (Homo sapiens, UniProt P30872).
T1 construct: expressed in transfected cells; host or cells: CHO-K1
Nature of the series: Somatostatin receptor radioligand binding, hSSTR-1 (CHO-K1 membranes). Particulars: read-out: Ki hSSTR1 ± (SEM). As to the method: Membranes for in vitro receptor binding assays were obtained by homogenizing (Polytron setting 6, 15 sec) CHO-K1 cells expressing human somatostatin receptor subtypes hSSTR-1, hSSTR-2, hSSTR-3, hSSTR-4 or hSSTR-5 in ice-cold 50 mM Tris-HCl. The homogenized cells were centrifuged twice at 39,000 g for 10 minutes with an intermediate resuspension in fresh buffer. The final pellets were resuspended in 10 mM Tris-HCl to prepare the cell membrane homogenate for use in the binding assay.
The final assay volume was 0.3 ml.
The cell membrane homogenate was incubated with the radioligands for 90 minutes at 25° C. The incubations were terminated by rapid filtration through GF/C filters pre-soaked in 0.3% polyethylenimine using a Brandel® filtration manifold (Gaithersberg, Md., U.S.A.). Each tube and filter was washed three times with 5-ml aliquots of ice-cold buffer. Specific binding was defined as the total radioligand bound minus that bound in the presence of 1000 nM SRIF-14 (for hSSTR-1, hSSTR-3, hSSTR-4 or hSSTR-5), or 1000 nM DPhe-c(Cys-Tyr-D-Trp-Lys-Abu-Cys)-Thr-NH2 for hSSTR-2.

The next series deals with T2, hSSTR-4 (Homo sapiens, UniProt P31391).
T2 construct: expressed in transfected cells; host or cells: CHO-K1
In words: Somatostatin receptor radioligand binding, hSSTR-4 (CHO-K1 membranes). Particulars: read-out: Ki hSSTR4 ± (SEM).

Where [3] appears, read: [125I-Tyr11]SRIF-14, value of 1000 indicates at least 1000.

T1 sequence (P30872 whole entry): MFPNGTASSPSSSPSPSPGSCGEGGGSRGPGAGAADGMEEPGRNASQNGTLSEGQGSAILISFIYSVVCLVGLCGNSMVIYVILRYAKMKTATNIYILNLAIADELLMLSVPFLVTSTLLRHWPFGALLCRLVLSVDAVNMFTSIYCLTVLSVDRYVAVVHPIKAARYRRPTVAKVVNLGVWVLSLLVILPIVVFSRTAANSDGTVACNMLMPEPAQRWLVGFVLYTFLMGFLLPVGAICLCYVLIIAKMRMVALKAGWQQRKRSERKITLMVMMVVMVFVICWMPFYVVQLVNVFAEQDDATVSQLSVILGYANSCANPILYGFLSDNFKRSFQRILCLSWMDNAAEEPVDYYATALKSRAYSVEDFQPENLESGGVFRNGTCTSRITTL
T2 sequence (P31391 whole entry): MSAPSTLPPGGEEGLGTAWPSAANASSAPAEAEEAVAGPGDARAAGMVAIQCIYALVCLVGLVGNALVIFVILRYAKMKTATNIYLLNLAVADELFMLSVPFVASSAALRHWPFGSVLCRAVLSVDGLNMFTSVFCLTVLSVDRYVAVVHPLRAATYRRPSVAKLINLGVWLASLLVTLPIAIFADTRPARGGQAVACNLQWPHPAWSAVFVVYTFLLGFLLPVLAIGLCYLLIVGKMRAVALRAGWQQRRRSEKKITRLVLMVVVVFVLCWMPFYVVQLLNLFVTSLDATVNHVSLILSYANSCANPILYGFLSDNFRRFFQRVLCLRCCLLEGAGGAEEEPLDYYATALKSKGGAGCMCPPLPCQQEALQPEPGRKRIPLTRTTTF
Description for hSSTR-4: For the hSSTR-1, hSSTR-3, and hSSTR-4 assays, aliquots of the membrane preparations were incubated for 90 minutes at 25° C. with 0.05 nM [^125I-Tyr11]SRIF-14 in 50 mM HEPES (pH 7.4) buffer containing 0.2% BSA and 5 mM MgCl2. The final assay volume was 0.3 ml. For the hSSTR-2 and hSSTR-5 assays, [^125I]-[4-(2-hydroxyethyl)]-1-piperazinylacetyl-D-Phe-c(Cys-Tyr-D-Trp-Lys-Abu-Cys)-Thr-NH2 (0.05 nM) and [^125I]-D-Phe-c(Cys-Tyr-D-Trp-Lys-Val-Cys)-Thr-NH2 were employed as the radioligands, respectively.

As for `CC[C@@H]1NC(=O)[C@H](CCCCN)NC(=O)[C@@H](Cc2c[nH]c3ccccc23)NC(=O)[C@H](Cc2ccc(O)cc2)NC(=O)[C@@H](NC(=O)[C@@H](Cc2ccccc2)NC(=O)CN2CCN(CCNC(=O)COCCOCCNC(=O)COCCOCCNC(=O)COCCOCCNC(=O)COCCOCCNC(=O)CCC(=O)N[C@@H](CNC(=O)OCc3ccccc3)C(=O)O[C@]3(CC)C(=O)OCc4c3cc3n(c4=O)Cc4cc5ccccc5nc4-3)CC2)CSSC[C@@H](C(=O)N[C@H](C(N)=O)[C@@H](C)O)NC1=O` [Example 8, Camptothecin-rvDap(Z)-Suc-(Doc)4-Aepa-D-Phe-c(Cys-Tyr-D-Trp-Lys-Abu-Cys)-Thr-NH2], the half-life was 2.2 h in series [1] and 0.7 h in series [2]. Moreover, the inhibitory constant (Ki) at hSSTR-1 and at hSSTR-4 was not below 1000 nM in each case.

In the case of `CC[C@@H]1NC(=O)[C@H](CCCCN)NC(=O)[C@@H](Cc2c[nH]c3ccccc23)NC(=O)[C@H](Cc2ccc(O)cc2)NC(=O)[C@@H](NC(=O)[C@@H](Cc2ccccc2)NC(=O)CN2CCN(CCNC(=O)COCCOCCNC(=O)COCCOCCNC(=O)COCCOCCNC(=O)COCCOCCNC(=O)CCC(=O)N[C@H](CNC(=O)OCc3ccccc3)C(=O)O[C@]3(CC)C(=O)OCc4c3cc3n(c4=O)Cc4cc5ccccc5nc4-3)CC2)CSSC[C@@H](C(=O)N[C@H](C(N)=O)[C@@H](C)O)NC1=O` [Example 9, Camptothecin-rvD-Dap(Z)-Suc-(Doc)4-Aepa-D-Phe-c(Cys-Tyr-D-Trp-Lys-Abu-Cys)-Thr-NH2], the half-life in series [1] is 1.7 h; in series [2], 0.7 h. Also, the Ki at hSSTR-1 and at hSSTR-4 was not below 1000 nM each time.

Turning to `CC[C@@H]1NC(=O)[C@H](CCCCN)NC(=O)[C@@H](Cc2c[nH]c3ccccc23)NC(=O)[C@H](Cc2ccc(O)cc2)NC(=O)[C@@H](NC(=O)[C@@H](Cc2ccccc2)NC(=O)CN2CCN(CCNC(=O)COCCOCCNC(=O)COCCOCCNC(=O)COCCOCCNC(=O)COCCOCCNC(=O)CCC(=O)N[C@@H](Cc3ccccc3)C(=O)O[C@]3(CC)C(=O)OCc4c3cc3n(c4=O)Cc4cc5ccccc5nc4-3)CC2)CSSC[C@@H](C(=O)N[C@H](C(N)=O)[C@@H](C)O)NC1=O` [Example 10, Camptothecin-rvPhe-Suc-(Doc)4-Aepa-D-Phe-c(Cys-Tyr-D-Trp-Lys-Abu-Cys)-Thr-NH2], the half-life in series [1] is 2.4 h; in series [2], 0.3 h. Also, the Ki on hSSTR-1 and on hSSTR-4 was not below 1000 nM in each case.

Turning to `CCc1c2c(nc3ccc(O)cc13)-c1cc3c(c(=O)n1C2)COC(=O)[C@@]3(CC)OC(=O)CNC(=O)CCC(=O)NCCOCCOCC(=O)NCCOCCOCC(=O)NCCOCCOCC(=O)NCCOCCOCC(=O)NCCN1CCN(CC(=O)N[C@H](Cc2ccccc2)C(=O)N[C@H]2CSSC[C@@H](C(=O)N[C@H](C(N)=O)[C@@H](C)O)NC(=O)[C@H](CC)NC(=O)[C@H](CCCCN)NC(=O)[C@@H](Cc3c[nH]c4ccccc34)NC(=O)[C@H](Cc3ccc(O)cc3)NC2=O)CC1` [Example 19, SN38-rvGly-Suc-(Doc)4-Aepa-D-Phe-c(Cys-Tyr-D-Trp-Lys-Abu-Cys)-Thr-NH2], the figures for the half-life in series [1] and in series [2] were 2.6 h and 6.9 h, respectively. Also, the Ki on hSSTR-1 is not below 1000 nM.

On to `CCCC[C@H](NC(=O)[C@H](CC(C)C)NC(=O)[C@H](Cc1c[nH]cn1)NC(=O)CCNC(=O)[C@@H](NC(=O)[C@H](C)NC(=O)[C@H](Cc1c[nH]c2ccccc12)NC(=O)[C@H](CCC(N)=O)NC(=O)[C@@H](Cc1ccc(O)cc1)NC(=O)[C@@H](CO)NC(=O)[C@H](CCCCN)NC(=O)COCCOCCNC(=O)COCCOCCNC(=O)COCCOCCNC(=O)COCCOCCNC(=O)CCC(=O)NCC(=O)O[C@]1(CC)C(=O)OCc2c1cc1n(c2=O)Cc2cc3ccccc3nc2-1)C(C)C)C(N)=O` [Example 25, Camptothecin-rvGly-Suc-(Doc)4-Lys-D-Ser-D-Tyr-Gln-Trp-Ala-Val-β-Ala-His-Leu-Nle-NH2] ({X1-Gly-Suc-AEEA-AEEA-AEEA-AEEA}-K[dS][dY]QWAV[βAla]HL[Nle]-NH2), for which the values for the half-life in series [1] and in series [2] were 2.6 h and 2.4 h, respectively.

`CCCC[C@H](NC(=O)[C@H](CC(C)C)NC(=O)[C@H](Cc1c[nH]cn1)NC(=O)CCNC(=O)[C@@H](NC(=O)[C@H](C)NC(=O)[C@H](Cc1c[nH]c2ccccc12)NC(=O)[C@H](CCC(N)=O)NC(=O)[C@@H](Cc1ccc(O)cc1)NC(=O)[C@@H](C)NC(=O)[C@H](CCCNC(=N)N)NC(=O)COCCOCCNC(=O)COCCOCCNC(=O)COCCOCCNC(=O)COCCOCCNC(=O)CCC(=O)NCC(=O)O[C@]1(CC)C(=O)OCc2c1cc1n(c2=O)Cc2cc3ccccc3nc2-1)C(C)C)C(N)=O` [Example 26, Camptothecin-rvGly-Suc-(Doc)4-Arg-D-Ala-D-Tyr-Gln-Trp-Ala-Val-β-Ala-His-Leu-Nle-NH2] ({X1-Gly-Suc-AEEA-AEEA-AEEA-AEEA}-R[dA][dY]QWAV[βAla]HL[Nle]-NH2): the half-life in series [1] was 1.8 h; in series [2], 1.4 h.

Regarding `CCCC[C@H](NC(=O)[C@H](CC(C)C)NC(=O)[C@H](Cc1c[nH]cn1)NC(=O)CCNC(=O)[C@@H](NC(=O)[C@H](C)NC(=O)[C@H](Cc1c[nH]c2ccccc12)NC(=O)[C@H](CCC(N)=O)NC(=O)[C@@H](Cc1ccc(O)cc1)NC(=O)[C@@H](CO)NC(=O)CCCNC(=O)CN1CCN(CCNC(=O)COCCOCCNC(=O)COCCOCCNC(=O)COCCOCCNC(=O)COCCOCCNC(=O)CCC(=O)NCC(=O)O[C@]2(CC)C(=O)OCc3c2cc2n(c3=O)Cc3cc4ccccc4nc3-2)CC1)C(C)C)C(N)=O` [Example 28, Camptothecin-rvGly-Suc-(Doc)4-Aepa-Gaba-D-Ser-D-Tyr-Gln-Trp-Ala-Val-β-Ala-His-Leu-Nle-NH2] ({X1-Gly-Suc-AEEA-AEEA-AEEA-AEEA}-[Pipz(1-CH2CO,4-CH2CH2NH)][GABA][dS][dY]QWAV[βAla]HL[Nle]-NH2), the half-life was 2.9 h in series [1] and 1.9 h in series [2].

Take `CC[C@@H]1NC(=O)[C@H](CCCCN)NC(=O)[C@@H](Cc2c[nH]c3ccccc23)NC(=O)[C@H](Cc2ccc(O)cc2)NC(=O)[C@@H](NC(=O)[C@@H](Cc2ccccc2)NC(=O)CN2CCN(CCNC(=O)COCCOCCOCCNC(=O)COCCOCCOCCNC(=O)COCCOCCOCCNC(=O)CCC(=O)N[C@H](CC(=O)O)C(=O)O[C@]3(CC)C(=O)OCc4c3cc3n(c4=O)Cc4cc5ccccc5nc4-3)CC2)CSSC[C@@H](C(=O)N[C@H](C(N)=O)[C@@H](C)O)NC1=O` [Example 29, Camptothecin-rvDAsp-Suc-(Peg3)3-Aepa-DPhe-c(Cys-Tyr-DTrp-Lys-Abu-Cys)-Thr-NH2]: the half-life is 44.1 h in series [1] and 9.3 h in series [2]. At hSSTR-1, the Ki is not below 1000 nM.

On to `CC[C@@H]1NC(=O)[C@H](CCCCN)NC(=O)[C@@H](Cc2c[nH]c3ccccc23)NC(=O)[C@H](Cc2ccc(O)cc2)NC(=O)[C@@H](NC(=O)[C@@H](Cc2ccccc2)NC(=O)CN2CCN(CCNC(=O)CCOCCOCCOCCOCCOCCOCCOCCOCCOCCOCCOCCOCCNC(=O)CCC(=O)N[C@H](CC(=O)O)C(=O)O[C@]3(CC)C(=O)OCc4c3cc3n(c4=O)Cc4cc5ccccc5nc4-3)CC2)CSSC[C@@H](C(=O)N[C@H](C(N)=O)[C@@H](C)O)NC1=O` [Example 30, Camptothecin-rvDAsp-Suc-Peg11-Aepa-DPhe-c(Cys-Tyr-DTrp-Lys-Abu-Cys)-Thr-NH2], for which the Ki at hSSTR-1 is not below 1000 nM.

Take `CC[C@@H]1NC(=O)[C@H](CCCCN)NC(=O)[C@@H](Cc2c[nH]c3ccccc23)NC(=O)[C@H](Cc2ccc(O)cc2)NC(=O)[C@@H](NC(=O)[C@@H](Cc2ccccc2)NC(=O)CN2CCN(CCNC(=O)COCCOCCNC(=O)COCCOCCNC(=O)COCCOCCNC(=O)COCCOCCNC(=O)CCC(=O)N[C@H](CCC(=O)O)C(=O)O[C@]3(CC)C(=O)OCc4c3cc3n(c4=O)Cc4cc5ccccc5nc4-3)CC2)CSSC[C@@H](C(=O)N[C@H](C(N)=O)[C@@H](C)O)NC1=O` [Example 31, Camptothecin-rvDGlu-Suc-(Doc)4-Aepa-DPhe-c(Cys-Tyr-DTrp-Lys-Abu-Cys)-Thr-NH2]: the Ki at hSSTR-1 was not below 1000 nM.

As for “Camptothecin-rvD-Glu-Suc-(Doc)4-Aepa-D-Phe-c(Cys-Tyr-D-Trp-Lys-Abu-Cys)-Thr-NH2 and Camptothecin-rvGlu-Suc-(Doc)4-Aepa-D-Phe-c(Cys-Tyr-D-Trp-Lys-Abu-Cys)-Thr-NH2 [Example 6]”, the Ki at hSSTR-1 (setting [3]) and on hSSTR-4 (setting [3]) was not below 1000 nM in each case.

A word on the half-life: it is the time needed for the level to fall by half in the phase considered. Lower therefore signals fast loss. By Ki is commonly meant a dissociation constant, usually derived from enzyme kinetics or from competition with a known ligand.
